Data taken from patent US20230052153A1 (NEWSOUTH INNOVATIONS, published 2023).

Biological target: T1, human FcγRIIa receptor (human, UniProt P12318 34-317)
T1 construct: whole, on cells; also called CD32
T1 sequence (looked up): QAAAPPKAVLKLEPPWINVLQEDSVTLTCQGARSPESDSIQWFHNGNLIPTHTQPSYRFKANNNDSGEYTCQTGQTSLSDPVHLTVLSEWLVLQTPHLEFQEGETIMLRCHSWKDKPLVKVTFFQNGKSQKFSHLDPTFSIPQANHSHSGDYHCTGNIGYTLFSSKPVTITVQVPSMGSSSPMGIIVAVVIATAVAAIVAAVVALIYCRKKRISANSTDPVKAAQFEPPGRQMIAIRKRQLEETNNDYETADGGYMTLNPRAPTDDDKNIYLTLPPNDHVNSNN
Assay: flow cytometry on human platelets, 2 µM scFv, detected with anti-c-Myc-AF-488
Method: Platelet-rich plasma (PRP) was obtained from whole blood after centrifugation at 200×g for 10 minutes. Washing/Suspension buffer (PBS, 0.5% BSA, 25 mM EDTA, pH 6.8) was used for platelet preparation throughout the experiment. 4 μl of PRP was incubated with HRU molecules (2 μM) for 30 minutes. Cells were washed once with 500 μl of buffer (PBS, 0.5% BSA, 25 mM EDTA, pH 6.8) and incubated with anti-c-Myc-AF-488. After washing, platelets were suspended in 200 μl of PBS and analyzed by flow cytometry (CantoII, BD Biosciences). Anti-c-Myc-AF-488 in the absence of HRU was used as negative control.

B1: HRU2 (HRU1 linked to bivalirudin) (scFv)
scFv: EVKLVESGPELKKPGETVKISCKASGYTFTNYGMNWVKQAPGKGLKWMGWLNTYTGESIYPDDFKGRFAFSLETSASTAYLQINNLKSEDTATYFCARGDYGYDDPLDYWGQGTSVTVSSGGGGSGGGGSGGGGSDIVMTQAPPSVPVTPGESVSISCRSSKSLLHTNGNTYLHWFLQRPGQSPRLLIYRMSVLASGVPDRFSGSGSGTAFTLSISRVEAEDVGVYYCMQHLEYPLTFGAGTKLEIKRAGGGGSGGGGSGGGGFPRPGGGGNGDFEEIPEEYL
notes: scFv fused to bivalirudin; also called H2
B1: binds.

B2: HRU4 (HRU1 with mutations) (scFv)
scFv: EVQLVESGPELKKPGETVKISCKASGYTFTNYGMNWVKQAPGKGLKWMGWLNTYTGESIYPDDFKGRFAFSLETSASTAYLQINNLKSEDTATYFCARGDYGYDDPLDYWGQGTSVTVSSGGGGSGGGGSGGGGSDIVMTQAPPSVPVTPGESVSISCRSSKSLLHTNGNTYLHWFLQKPGQSPRLLIYRMSVLASGVPDRFSGSGSGTDFTLKISRVEAEDVGVYYCMQHLEYPLTFGAGTKLEIKRAEQKLISEEDL
notes: also called H4
B2: binds.
